Measurements from publication PMC9295118, “Tungsten Enzyme Using Hydrogen as an Electron Donor to Reduce Carboxylic Acids and NAD^+” (ACS Catalysis, 2022).

Key:
BaDH = target: T1, BaDH (Aromatoleum aromaticum, UniProt Q5P459); experiment: coupled assay with AORAa, NADPH at […] nm and HPLC of benzyl alcohol; format: biochemical; settings: 100 mM citric buffer pH 5.5, 30 °C, benzaldehyde formed in situ by AORAa
T1 construct: gene adh; recombinant, expressed in E. coli BL21(DE3), purified; details in supplement
T1 sequence (Q5P459 1-362): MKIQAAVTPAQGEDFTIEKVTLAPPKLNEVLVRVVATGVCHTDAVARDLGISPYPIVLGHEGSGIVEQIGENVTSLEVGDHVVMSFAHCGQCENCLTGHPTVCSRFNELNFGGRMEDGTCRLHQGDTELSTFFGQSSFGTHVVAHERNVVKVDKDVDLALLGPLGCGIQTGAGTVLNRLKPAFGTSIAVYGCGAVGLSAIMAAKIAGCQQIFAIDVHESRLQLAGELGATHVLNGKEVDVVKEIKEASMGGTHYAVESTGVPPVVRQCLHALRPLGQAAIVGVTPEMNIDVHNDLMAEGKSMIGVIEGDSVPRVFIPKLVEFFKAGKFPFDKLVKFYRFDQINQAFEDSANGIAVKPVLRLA

[1] = substrate: O=Cc1ccccc1; experiment: steady-state kinetics, initial rates of benzaldehyde oxidation with NAD+; format: biochemical, Aromatoleum aromaticum; settings: 1 mM NAD+, Tris/HCl pH 8.0, 30 °C, aerobic, W-cofactor beta-subunit site
From the text: steady-state kinetics, initial rates of benzaldehyde oxidation with NAD+ on AORAa

purified protein [2] = substrate: O=C(O)c1ccccc1; experiment: purified protein; format: biochemical, Aromatoleum aromaticum; settings: 2.5% H2 as electron donor, 0.6 mM NADPH, 100 mM citric buffer pH 5.5, 30 °C, W-cofactor beta-subunit site
purified protein [3] = substrate: NC(=O)c1ccc[n+]([C@@H]2O[C@H](COP(=O)(O)OP(=O)(O)OC[C@H]3O[C@@H](n4cnc5c(N)ncnc54)[C@H](O)[C@@H]3O)[C@@H](O)[C@H]2O)c1; experiment: purified protein; format: biochemical, Aromatoleum aromaticum; settings: 2.5% H2 as electron donor, 100 mM Tris/HCl pH 8.0, 30 °C, anaerobic, FAD gamma-subunit site expected

Molecule: NC(=O)C1=CN([C@@H]2O[C@H](COP(=O)(O)OP(=O)(O)OC[C@H]3O[C@@H](n4cnc5c(N)ncnc54)[C@H](OP(=O)(O)O)[C@@H]3O)[C@@H](O)[C@H]2O)C=CC1 [NADPH]
- coupled assay with AORAa, NADPH at 365 nm and HPLC of benzyl alcohol (BaDH): confirming that NADPH was only turned over by BaDH, not by AORAa

Molecule: O=Cc1ccccc1 [benzaldehyde]
- coupled assay with AORAa, NADPH at 365 nm and HPLC of benzyl alcohol (BaDH): it also catalyzed the reduction of benzaldehyde with either NADH or NADPH

B1: AORAa (Aromatoleum aromaticum EbN1) (protein)
chain 1: MGWNRKVLRVNLAEGTCTPEPLNMQWADEYLGSRGLATKYLVSETDPKVDPLSPDNKMIMATGPLTGTMASTGGRYTVVTKGPLTGAIACSNSGGFFGAEMKFAGWDMVIFEGRSPTPVYLFIENERAELRDASYLWGRSCWETEESIRAQHQDPLIRVSSIGRAGENQVMFACIVNDLHRAAGRSGVGAVMGSKNLKAVAIRGTKGVSGIRDFPGFVRATSEAKKVLAGNPVTSEGLPKFGTQVLMNVINEMGALPTRNHRDVQFEDASKISAEAMHEKRPSDGKPQLVTNAACFGCTIACGRISAIDKTHFTVKNNPKYWGASGGLEYEAAWALGAANGVGDLEALQYANLLCNEQGMDPISFGATVGAAMELYETGVLTKERIGLDAPFGSADALAKLAEMTATGEGFGKEIGLGSKRLCEKYGHPELSMSVKGQEFPAYDSRGIQGMGLAYATSNRGACHLRGYTVASEVLGVPVKTDPHVIEGKAELVKAFQDATAVFDSAGICVFTSFAWTLADVQPQIAAACDGDWSMDKLATVGERIWNMERQFNNAAGLGAQDDNLPPRLTSEPAKSGPAKGMVNRLAEMLPEYYGVRGWTPEGTPTPETLSRLGLS
chain 2: MKHVILGNGPAGVIAAETLRRAAPTDDILLFGSEDAPPYSRMAIPYLLEGNIDESGTWLRKSPGHFDRLRIHEMRGRAVSLDSERRRILFDDGHFESWDRLLIATGSHPVRPPIPGIDLPEVQTCWTLEDARAIARFATPGARVLQLGAGFIGCIIMEALAARGVELTVVEMGDRMVPRMMTPTAGGMIRKWVEDQGVRVVTNAGVSRIDCRASNDAPLDVTLSTGEVVVADLVIVAAGVAPNIAFLEATPVHVAKGVLVDDRLQTSVPGIFAAGDVAEAPDLFTGAHLVAAIQPNAADQARVAALNMAGHEARLKGVLAINVLDTLGLISSSFGQWWGEERERGGAGVEHVDEAAYRYLSLQFKDDVLIGATSIGLTEHVGALRGLIHGRVRLGEWKERLLHSPLQFVDAYIARSQQPMALVR
notes: full-length AorABC, N-terminal Twin-Strep-tag on AorA, co-expressed with AorDE in Aromatoleum evansii; (alpha-beta)2-gamma complex, 218 kDa; with Aldehyde oxidoreductase polyferredoxin (iron-sulfur) subunit alpha
- Km [1]: 39.3 ± 6.6 µM
- Vmax [1]: 33.8 µmol/min/mg
- kcat [1]: 123 s⁻¹
- kcat/Km [1]: 3.1e+06 M⁻¹ s⁻¹
- Km (purified protein [2]): 33.7 mM
- kcat (purified protein [2]): 1.4 s⁻¹
- Km (purified protein [3]): 21.7 ± 2.7 µM
- Vmax (purified protein [3]): 3.7 µmol/min/mg
- kcat (purified protein [3]): 13.4 s⁻¹
- kcat/Km (purified protein [3]): 600000 M⁻¹ s⁻¹
